# Source: US20170099813
# Legend:
# Assay in all cases: cell_activity
# [1] = tested on: ssSRY1.2 TALEN left monomer (artificial); conditions: pair with p4; Surveyor day 3, swine fibroblasts
# [2] = tested on: ssSRY1.2 TALEN right monomer (artificial); conditions: pair with p3; Surveyor day 3, swine fibroblasts
# [3] = tested on: ssSRY1.1 TALEN left monomer (artificial); conditions: pair with p2; Surveyor day 3, swine fibroblasts; 46.3% HDR with ssODN
# [4] = tested on: ssSRY1.3 TALEN right monomer (artificial); conditions: pair with p5; Surveyor day 3, swine fibroblasts
# [5] = tested on: ssSRY1.3 TALEN left monomer (artificial); conditions: pair with p6; Surveyor day 3, swine fibroblasts
# [6] = tested on: ssSRY1.1 TALEN right monomer (artificial); conditions: pair with p1; Surveyor day 3, swine fibroblasts; 46.3% HDR with ssODN
sequence,measurement,setting,value
AGAGAACCCTCAAATG (double strand) [ssSRY1.2 left half-site],activity,[1],35 % NHEJ
GCAAGTGGCTGGGATGC (double strand) [ssSRY1.2 right half-site],activity,[2],35 % NHEJ
GAACGCTTTCATTGTG (double strand) [ssSRY1.1 left half-site],activity,[3],30 % NHEJ
TTACAGAAGCCGAAA (double strand) [ssSRY1.3 right half-site],activity,[4],16.2 % NHEJ
CAGCAAGTGGCTGGGA (double strand) [ssSRY1.3 left half-site],activity,[5],16.2 % NHEJ
GGAGAAAAGTGGCTCT (double strand) [ssSRY1.1 right half-site],activity,[6],30 % NHEJ
